From PMC11652881
pKd: −log10 of the molar value.

Key:
[1] = target: recombinant wild-type cardiac actin (WTRec-ACTC), as F-actin filaments (human) (UniProt P68032); assay: TIRF microscopy of labelled tropomyosin binding along actin filaments; rhodamine phalloidin-labelled ACTC filaments held on bovine ventricular HMM (0.5 mg/ml) on a nitrocellulose-coated coverslip; Alexa-Tm added while recording at 10 frames per second; fluorescence along a filament normalised from 1 to 100 percent; elongation rate = slope of the binding curve from 0 to 15 s
[2] = target: recombinant wild-type cardiac actin (WTRec-ACTC), as F-actin filaments (human) (UniProt P68032); assay: co-sedimentation; 7 uM F-actin with 0.1 to 2 uM tropomyosin in 100 mM KCl, 5 mM MgCl2, 20 mM Tris pH 8, 1 h at 25 C; 100,000 rpm 20 min (TLA100); Tm in the pellet by SDS-PAGE densitometry, normalised 0-100; fit to specific binding with Hill slope

| Substance | Elongation Rate [1] | pKd [2] |
| --- | --- | --- |
| Alexa488-labeled tropomyosin (bovine ventricular tropomyosin modified on Cys-190) (from UniProt Q5KR49 1-284) (natural protein) | 4.56 s⁻¹ | – |
| tropomyosin purified from bovine ventricular ether powder (from UniProt Q5KR49 1-284) | – | 6.27 |
